# Reference: US20130196320A1, “METHOD FOR IMPROVING CLEAVAGE OF DNA BY ENDONUCLEASE SENSITIVE TO METHYLATION” (CELLECTIS, priority 2010, published 2013)
# Like-named read-outs stand apart in the source and are kept apart here.
# Tests used:
# [1] = test system: CAPNS1 target in human CAPNS1 gene, 293H cells; experiment: Meganuclease-induced mutagenesis assay at CAPNS1 recognition site; format: cell-based; conditions: Empty vector, 1 μM 5-aza-2′-deoxycytidine, CAPNS1 locus
# Experimental: The human 293H cells (ATCC) were plated at a density of 1.2×10^6 cells per 10 cm dish in complete medium (DMEM supplemented with 2 mM L-glutamine, penicillin (100 IU/ml), streptomycin (100 μg/ml), amphotericin B (Fongizone: 0.25 μg/ml, Invitrogen-Life Science) and 10% FBS). The cells were pre-treated with 5-aza-deoxycytidine at 0.2 μM or 1 μM, 48 hours before transfection and the treatment was maintained 48 hours post-transfection. The medium was changed every day. The cells were transfected with 3 μg of DNA plasmids encoding meganuclease for RAG or 2.5 μg of each monomer CAPNS1 using Lipofectamine 2000 transfection reagent (Invitrogen) according to the manufacturer's protocol.
# The efficiency of the meganuclease to promote mutagenesis at its endogenous recognition site was evaluated by sequencing the DNA surrounding the meganuclease cleavage site. Two days post-transfection, genomic DNA was extracted. 200 ng of genomic DNA were used to amplify (PCR amplification) the endogenous locus surrounding the meganuclease cleavage site. PCR amplification is performed to obtain a fragment flanked by specific adaptor sequences [adaptor A: 5′-[…]-NNNN-3′(SEQ ID NO: 46) and adaptor B, 5′-[…]-3′ (SEQ ID NO: 47)] provided by the company offering sequencing service (GATC Biotech AG, Germany) on the 454 sequencing system (454 Life Sciences). The primers sequences used for PCR amplification were:
# RAG_R1: 5′-[…]-[…]-3′ (SEQ ID NO: 58) and CAPNS1_J3: 5′-[…]-NNNN-[…] (SEQ ID NO: 59) and CAPNS1_R3: 5′-[…]-[…]-3′ (SEQ ID NO: 60). Sequences specific to the locus are underlined. The sequence NNNN in primer F1 is a Barcode sequence (Tag) needed to link the sequence with a PCR product. The percentage of PCR fragments carrying insertion or deletion at the meganuclease cleavage site is related to the mutagenesis induced by the meganuclease through NHEJ pathway in a cell population, and therefore correlates with the meganuclease activity at its endogenous recognition site. 5000 to 10000 sequences were analyzed per conditions.
# C1221 DNA target = experiment: In vitro cleavage assay with C1221 duplex, increasing meganuclease concentration; format: biochemical
# Experimental: FIG. 2: In vitro cleavage of unmethylated or methylated C1221 by I-CreI. A constant amount of C1221 (50 nM) was incubated with increasing concentrations of I-CreI (0 to 2 μM) in reaction buffer (10 mM Tris-HCl, 150 mM NaCl, 10 mM MgCl2, pH8) for an hour at 37° C. The reaction was stopped and the remaining uncleaved C1221 was quantify and plotted as function of I-CreI concentration.
# FIG. 3: In vitro cleavage of unmethylated or methylated C1221 by I-CreI D75N. 50 nM C1221 containing either 0, 1, 2 or 3 methylated CG was incubated with increasing concentrations of I-CreI D75N (0 to 2 μM) in reaction buffer (10 mM Tris-HCl, 150 mM NaCl, 10 mM MgCl2, pH8) for an hour at 37° C. The reaction was stopped and cleaved and uncleaved C1221 (top and bottom panel respectively) were quantify and plotted as function of I-CreI D75N concentration.
# To investigate the influence of C1221 methylation on the nuclease activity of I-CreI, an in vitro cleavage assay with either unmethylated or fully methylated C1221 duplex (SEQ ID NOs: 4-5 and 12-13 respectively) was performed. A constant amount of C1221 duplex (50 nM) was incubated with increasing concentration of I-CreI (0 to 2 μM) in a total volume of 25 μL of reaction buffer (10 mM Tris-HCl, 150 mM NaCl, 10 mM MgCl2, pH8). Cleavage reaction was allowed to proceed 1 hour at 37° C. and then stopped by addition of 5 μL of 6× stop buffer (45% glycerol, 95 mM EDTA, 1.5% (w/v) SDS, 1.5 mg/mL proteinase K and 0.048% (w/v) bromophenol blue) followed by an hour incubation at 37° C. Cleaved and uncleaved DNA products were separated by PAGE using a TGX Any kD precast gel (Bio-Rad), stained with SYBR Green and then quantified using Quantity One software (Bio-Rad).
# To investigate the influence of C1221 methylation on the nuclease activity of I-CreI D75N, in vitro cleavage assay with C1221 duplex containing either 0, 1, 2 or 3 methylated CG (SEQ ID NOs: 4-5, 6-7, 8-9, 10-11 respectively) was performed, according to the procedure described for I-CreI wild type.
Molecule,"mutagenesis, PCR fragments carrying a mutation [1]","mutagenesis, PCR fragments carrying a mutation ([1]; listed as 5-aza-2′-deoxycytidine)","EC50 (C1221 DNA target; fully methylated C1221, 1 hour at 37° C., read-out: C50 (concentration of I-CreI needed to cleave 50% of C1221)) [nM]",I-CreI concentration at which C1221 is totally cleaved (C1221 DNA target; unmethylated C1221) [nM],"EC50 (C1221 DNA target; unmethylated C1221, 1 hour at 37° C., read-out: C50 (concentration of meganuclease needed to cleave 50% of C1221)) [nM]"
"Nc1ncn([C@H]2C[C@H](O)[C@@H](CO)O2)c(=O)n1 [5-aza-2′deoxycytidine, reference compound]",0.22%±0.25,0.22% ± 0.25,–,–,–
"I-CreI: wild-type I-CreI meganuclease (… homing endonuclease), SEQ ID NO: 1, recombinant Cterm His-tag (protein, listed as Chlamydomonas reinhardtii, C-terminal His-tag) MNTKYNKEFLLYLAGFVDGDGSIIAQIKPNQSYKFKHQLSLTFQVTQKTQRRWFLDKLVDEIGVGYVRDRGSVSDYILSEIKPLHNFLTQLQPFLKLKQKQANLVLKIIEQLPSAKESPDKFLEVCTWVDQIAALNDSKTRKTTSETVRAVLDSLSEKKKSSP",–,–,> 2000,250,100
